Biological target: amyloid β-peptide Aβ40, aggregating sample (soluble oligomers, early intermediates) (UniProt P05067)
Test: cell-based or functional assay

B1: TJ10 (beta-sheet mini protein) (designed binder)
chain: MAQTFWLSIQGKTLYWQIRIYAIDAAEAEKIFKQYANDNGIDGEWTYDDATKTFTVTE
With B1 the ThT fluorescence: share of Aβ40 aggregated after 18 h was 38%.

Reference: patent US20090170069A1
